For series [1], the system named is eIF2 heterotrimer (WT eIF2γ, His-tagged) (Saccharomyces cerevisiae). The experiment in a line: filter binding. Particulars: aminoacylated with Met; Filter binding: 25 mM HEPES-KOH pH 7.6, 2.5 mM Mg(OAc)2, 80 mM KOAc, 2 mM DTT, 0.5 mM GDPNP-Mg2+, 1 nM tRNA, 3.125-200 nM eIF2, 26 C; pull-down: 20 mM Tris-HCl ….
The test system of series [2] is eIF2 heterotrimer with eIF2γ-I318M (His-tagged) (Saccharomyces cerevisiae). Put plainly: filter binding. Particulars: aminoacylated with Met; Filter binding: 25 mM HEPES-KOH pH 7.6, 2.5 mM Mg(OAc)2, 80 mM KOAc, 2 mM DTT, 0.5 mM GDPNP-Mg2+, 1 nM tRNA, 3.125-200 nM eIF2, 26 C; pull-down: 20 mM Tris-HCl ….

These results are taken from article PMC6344876.

By Kd is commonly meant the free concentration of one partner at which half of the binding sites on the other are occupied at equilibrium, for simple one-to-one binding. High values mean a looser complex, low ones a tighter complex.

For the substance “[35S]Met-tRNAiMet (in vitro transcribed)”, the Kd in series [1] came to 18 nM; in series [2], 98 nM.
